Results: patent US20240293570A1 (priority 2021, published 2024)
Where two headings read alike, the source gives them in different places. *1 amine or outer side, *2 acyl side, *3 side chain or, on linkers, in order; H or OH if unused. Where a SMILES comes first, the peptide text is derived from it. [ ]: non-standard residue; d: D form. The star is where a group is joined. MaleimidoPEG4propanoyl = O=C1C=CC(=O)N1CCOCCOCCOCCOCCC(=O)*; X2 = CO[C@@H]([C@H]1CCCN1[*:1])[C@@H](C)C(=O)[*:2]; Propanoyl(3-maleimido) = O=C1C=CC(=O)N1CCC(=O)*; Dil = CC[C@H](C)[C@H](NC)[C@@H](CC(=O)O)OC; X1 = O=C(CN1CCOCCN([*:1])CCOCC1)[*:2]; PABC = O=C(OCc1ccc(N[*:1])cc1)[*:2]; X3 = C[C@@H](N*)[C@@H](O)c1ccccc1; NMeV = CN[C@H](C(=O)O)C(C)C

Assays:
[1] = Stability (placement) test of ADCs at 40° C. in dark for 14 days, DAR and polymer content; assay type: physicochemical
Experimental: (§1) Polymers (high molecular components) of the antibody-drug conjugates were tested using molecular exclusion high-performance liquid chromatography (SE-HPLC). A Biocore SEC chromatographic column (7.8×300 mm, […]) was used, and the mobile phase was 50 mM phosphate containing 300 mM sodium chloride (pH 6.8), with a flow rate of 0.5 mL/min. Samples of […] and 10 μl were injected. […] The polymer content of an antibody-drug conjugate was calculated using an area normalization method.
(§2) A drug-antibody conjugating ratio (also known as drug-antibody ratio, abbreviated as DAR) of the antibody-drug conjugate was tested using reversed-phase high-performance liquid chromatography-mass chromatography (RP-HPLC-MS). The ADC sample was diluted with 50 mmol/L Tris buffer (pH 8.0) to 1 mg/ml. A fresh dithiothreitol (DTT) stock solution was added to achieve a final DTT concentration of 50 mmol/L. Incubation was performed at 37° C. for 30 minutes. A PLRP-S chromatographic column (1000 Å pores, 2.1×50 mm, 5) μm) was used, and the column temperature was 70° C. The flow rate was 0.25 mL/min. […] of sample was injected; the mobile phase A was an aqueous solution of 0.1% formic acid (V/V) and 0.025% trifluoroacetic acid (V/V), and the mobile phase B was an acetonitrile solution of 0.1% formic acid (V/V) and 0.025% trifluoroacetic acid (V/V); the running time was 0-3 minutes, where 27% of mobile phase B ran for 3 minutes, and the mobile phase B ran from 27% to 49% within 3-25 minutes, from 49% to 95% within 25-26 minutes, at 95% within […], from 95% to 27% within 30-31.5 minutes, and at 27% for 31.5-45 minutes. […] Mass spectrometry drying gas was at a temperature of 350° C. and a flow rate of 7.0 L/min, the pressure of an atomizer was 40 psi, capillary voltage was positive 3000V and negative 3000V, and the mass range was 500-1600 m/z. The molecular weight of each mass spectrometry peak (ranging from 20000 to 70000) was calculated by deconvolution and compared with light and heavy chain molecular weights of un-conjugated antibodies to calculate a drug load at each peak, so as to determine the load of a corresponding ultraviolet peak. Area percentages of heavy and light chain ultraviolet peaks were calculated through integration, and a weighted average DAR of the antibody-drug conjugate was calculated by combining the area percentages with the drug load distribution of each peak.
Stability testing method: The stability of the obtained ADCs was tested for 14 days. The ADCs were placed at 40° C. in dark. Sampling points were days 0, 7, and 14. The polymer content and DAR value of samples at different sampling points were tested according to the method in Experimental Example 1.

[2] = assay type: physicochemical; conditions: ADC with Her2 antibody, RP-HPLC-MS
Experimental: as §2

[3] = Polymer (high molecular component) content of antibody-drug conjugates by SE-HPLC; assay type: physicochemical; conditions: ADC with Her2 antibody
Experimental: as §1

[4] = Naked antibody content of antibody-drug conjugates by hydrophobic interaction chromatography (HIC); assay type: physicochemical; conditions: ADC with Her2 antibody
Experimental: The content of naked antibodies in the antibody-drug conjugate was tested using hydrophobic interaction chromatography (HIC). A Biocore HIC-Butyl chromatographic column (4.6×150 mm, 5 μm) was used. The mobile phase A was a 100 mM phosphate aqueous solution containing 2 M ammonium sulfate (pH 7.0), and the mobile phase B was a 100 mM phosphate aqueous solution (pH 7.0): isopropanol=80:20 (V/V). Samples of 50 μg and 10 μl were injected. The mobile phase A at the flow rate of 1 mL/min ran at 100% for 3 minutes. Within 3-25 minutes, the mobile phase B ran from […] to 100%, while the mobile phase B decreased to 0% at 25.1 and ran to 30 minutes. […] The naked antibody content of the antibody-drug conjugate was calculated using an area normalization method based on the retention time of a naked antibody peak located by the antibody of the antibody-drug conjugate.

Structure (SMILES)	DAR ([1]; Day 0, 40° C. in dark)	Polymer content (%) ([1]; Day 0, 40° C. in dark)	DAR ([1]; Day 7, 40° C. in dark)	Polymer content (%) ([1]; Day 7, 40° C. in dark)	DAR ([1]; Day 14, 40° C. in dark)	Polymer content (%) ([1]; Day 14, 40° C. in dark)	DAR [2]	Polymer content (%) [3]	Naked antibody content (%) [4]
C=C1C[C@@H]2CC[C@@]34C[C@H]5OC6C(O[C@H]7CC[C@H](CC(=O)C[C@@H]8[C@@H](OC)[C@@H](C[C@H](O)CNC(=O)CNC(=O)[C@H](Cc9ccccc9)NC(=O)CNC(=O)CNC(=O)CN9CCOCCOCCN(C(=O)CCCC%10C(=O)C=CC%10=O)CCOCCOCC9)O[C@H]8C[C@H]8O[C@@H](CC[C@@H]1O2)C[C@@H](C)C8=C)O[C@@H]7[C@@H]6O3)[C@H]5O4 [Example 41]	3.84	1.52%	3.81	1.53%	3.81	1.59%	3.84	1.52%	5.05%
C=C1C[C@@H]2CC[C@@]34C[C@H]5OC6C(O[C@H]7CC[C@H](CC(=O)C[C@@H]8[C@@H](OC)[C@@H](C[C@H](O)CNC(=O)CNC(=O)[C@H](Cc9ccccc9)NC(=O)CNC(=O)CN9CCOCCOCCN(C(=O)CCCC%10C(=O)C=CC%10=O)CCOCCOCC9)O[C@H]8C[C@H]8O[C@@H](CC[C@@H]1O2)C[C@@H](C)C8=C)O[C@@H]7[C@@H]6O3)[C@H]5O4 [Example 42]	4.12	1.25%	4.11	1.28%	4.08	1.26%	4.12	1.25%	1.06%
C=C1C[C@@H]2CC[C@@]34C[C@H]5OC6C(C[C@H]7CC[C@H](CC(=O)C[C@@H]8[C@@H](OC)[C@@H](CC(O)CNC(=O)CNC(=O)[C@H](Cc9ccccc9)NC(=O)CNC(=O)CNC(=O)CN9CCN%10CCN(CCN(CC(=O)NCC(=O)NCC(=O)N[C@@H](Cc%11ccccc%11)C(=O)NCC(=O)NCOCC(=O)N[C@H]%11CCc%12c(C)c(F)cc%13nc%14c(c%11c%12%13)Cn%11c-%14cc%12c(c%11=O)COC(=O)[C@]%12(O)CC)CC9)CCN(C(=O)CCCCCN9C(=O)C=CC9=O)CC%10)O[C@H]8C[C@H]8O[C@@H](CC[C@@H]1O2)C[C@@H](C)C8=C)O[C@@H]7[C@@H]6O3)[C@H]5O4 (stereo partly drawn) [Example 59]	3.83	1.18%	3.83	1.22%	3.78	1.27%	3.83	1.18%	2.57%
CCc1c2c(nc3ccc(O)cc13)-c1cc3c(c(=O)n1C2)COC(=O)[C@@]3(CC)OC(=O)N(C)CCN(C)C(=O)COCNC(=O)[C@H](CC(N)=O)NC(=O)[C@H](C)NC(=O)[C@H](C)NC(=O)CN1CCOCCN(C(=O)CCN2C(=O)C=CC2=O)CCOCC1 [Example 83]	3.96	0.56%	3.98	0.59%	3.96	0.58%	3.96	0.56%	2.23%
CC[C@H](C)[C@@H]([C@@H](CC(=O)N1CCC[C@@H]1[C@H](OC)[C@@H](C)C(=O)N[C@H](C)[C@@H](O)c1ccccc1)OC)N(C)C(=O)[C@@H](NC(=O)[C@H](C(C)C)N(C)C(=O)OCc1ccc(NC(=O)CNC(=O)[C@H](Cc2ccccc2)NC(=O)CNC(=O)CNC(=O)CN2CCOCCN(C(=O)CCOCCOCCOCCOCCN3C(=O)C=CC3=O)CCOCC2)cc1)C(C)C [Example 85] (MaleimidoPEG4propanoyl-[X1]GGFG[PABC][NMeV]V[Dil][X2]-X3)	4.04	1.43%	4.08	1.48%	4.00	1.45%	4.04	1.43%	1.98%
CC[C@H](C)[C@@H]([C@@H](CC(=O)N1CCC[C@@H]1[C@H](OC)[C@@H](C)C(=O)N[C@H](C)[C@@H](O)c1ccccc1)OC)N(C)C(=O)[C@@H](NC(=O)[C@H](C(C)C)N(C)C(=O)OCc1ccc(NC(=O)CNC(=O)[C@H](Cc2ccccc2)NC(=O)CNC(=O)CN2CCOCCN(C(=O)CCN3C(=O)C=CC3=O)CCOCC2)cc1)C(C)C [Example 86] ({Propanoyl(3-maleimido)}-[X1]GFG[PABC][NMeV]V[Dil][X2]-X3)	4.20	0.97%	4.23	0.99%	4.16	1.11%	4.20	0.97%	3.45%
C=C1C[C@@H]2CC[C@@]34C[C@H]5OC6C(O[C@H]7CC[C@H](CC(=O)C[C@@H]8[C@@H](OC)[C@@H](C[C@H](O)CNC(=O)OCc9ccc(NC(=O)[C@H](CCCNC(N)=O)NC(=O)[C@@H](NC(=O)CN%10CCOCCN(C(=O)CCN%11C(=O)C=CC%11=O)CCOCC%10)C(C)C)cc9)O[C@H]8C[C@H]8O[C@@H](CC[C@@H]1O2)C[C@@H](C)C8=C)O[C@@H]7[C@@H]6O3)[C@H]5O4 [Example 87]	3.85	1.12%	3.87	1.15%	3.81	1.24%	3.85	1.12%	2.11%
